{"source": "the nanobody polyreactivity screen of Harvey et al. (2022)", "data": [{"test": "yeast display, Sf9 membrane polyspecificity reagent, FACS + sequencing; frameworks hold sequencing errors", "method_in_brief": "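Using colony PCR, genes from sorted yeast display clones were amplified, then sequenced on MiSeq at 2 × 250 and filtered by CDR length. The clones had been stained with 10% biotinylated, detergent-solubilized Sf9 membrane reagent for 1 hour at 4 °C and sorted by FACS into low and high (top ~1%) gates on anti-HA and streptavidin fluorescence. Polyreactivity labels come from the gate of origin.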", "values": [{"sequence": "QVHLVESGGGLVQAGGSLCLSCAASGSIFINAMGWYRQAPGKERELVATIRWRGGTTYYADSVKGRFTISRDNAKNTVYLQMNSLKPEDTAVYYCAARVHSVHYPYYYWGQGTQVTVSS", "polyreactivity (PSR sort gate)": "low polyreactivity"}, {"sequence": "QVHLVESGGGLVQAGGSLLLSCAASGIIFSYYAMGWYRQAPGKERELVAAISRSGVRPYYADSVKGRFTISRDNAKHTVYLQMYSLKPEDTAVYYCNAEFSPYPYDYWGQGTQVSVSS", "polyreactivity (PSR sort gate)": "high polyreactivity"}, {"sequence": "QVHLVESGGGLVQAGGSLRLICAASGRIYTFYAMGWYRQAPGKERHLVAAIRGSSVSTYYADSVKGRFTISRDNAKITVYLQMNSLKPEDTAVYYCAADIYLWNSEYYYWGQGTQVTVSS", "polyreactivity (PSR sort gate)": "low polyreactivity"}, {"sequence": "QVHLVESGGGLVQAGGSLRLRCAASGSTFEYNAMGWYRPAPGKERELVASSTNYADSVKGRFTISRDNAKNTVSLQMNSLKPEDTAVYYCSREQGVNRNHDYWVQGTQVTVSS", "polyreactivity (PSR sort gate)": "low polyreactivity"}, {"sequence": "QVHLVESGGGLVQAGGSLRLRSPASGRTFDDNAMGWYRQAPGKESEMVAGITDNGGGTNYADSVKGRFTISRDNAKNTVYLQMSSLKPEDTAVYYCAADGKLVYVNGYNLYYWGQGTQVTVSS", "polyreactivity (PSR sort gate)": "low polyreactivity"}, {"sequence": "QVHLVESGGGLVQAGGSLRLSCAASAFIFNRNAMGGYRQAHGKERELVAAISRSGGRTYYADSVKGRFTISRDHAKNTVYIQMNSLKPEDTAVYYCATEGYHGEFDYWGQGTQVTVSS", "polyreactivity (PSR sort gate)": "high polyreactivity"}, {"sequence": "QVHLVESGGGLVQAGGSLRLSCAASGFIFDPYGMGWYRQAPGKERELVAAISSRVGSTYYADSVKGRFTISRDNAKNTVYLQLNSLKPEDTAVYYCAADNDGVGYWVYEEMDYWGQGTQVTVSS", "polyreactivity (PSR sort gate)": "low polyreactivity"}, {"sequence": "QVHLVESGGGLVQAGGSLRLSCAASGFIFHSYAMGWYRQAPGKERELVASISRGGGSTYYADSVKGRFTISRDNAKNTVYLQMNSLKTEDTAVYYCNAVWRSNSRFDYWGQGTQVTVSS", "polyreactivity (PSR sort gate)": "high polyreactivity"}, {"sequence": "QVHLVESGGGLVQAGGSLRLSCAASGFIFRYYAMGWYRQAPGKEREMVAAISWSGGSTYYADSVKGRFTISRDNAKNTVYLQMNSLKPEDTAVYYCAADRYAILFYAEDYWGQGTQVTVSS", "polyreactivity (PSR sort gate)": "low polyreactivity"}, {"sequence": "QVHLVESGGGLVQAGGSLRLSCAASGFIFTYYTMGWYRQAPGKERELVAAISRSGARTYYADSVKGRFTISRDNAKNTVYLQMNSLKPEDTAVYYCNTDISYGYYPVGYDYWGQGTQVTVSS", "polyreactivity (PSR sort gate)": "high polyreactivity"}, {"sequence": "QVHLVESGGGLVQAGGSLRLSCAASGFIFYYYTMGWYRQAPGKEREFVAAITYSGGRTYYADSVKGRFTISRDNAKNSVYLQMNSLKPEDTSVYYCAAVPRYGPSYRMDYWGQGTQVTVSS", "polyreactivity (PSR sort gate)": "high polyreactivity"}, {"sequence": "QVHLVESGGGLVQAGGSLRLSCAASGFTFDAYAMGWYRQAPGKERELVAAITRRSGSTYYADSVKGRFTISRDNAKNTVYLQMNSLKPEDTAVYYCAAVSVHRLGSTFGYWGQGTQVTVSS", "polyreactivity (PSR sort gate)": "high polyreactivity"}, {"sequence": "QVHLVESGGGLVQAGGSLRLSCAASGFTFKDYAMGWYRQAPGKHTELVAAISYSGGSTYYADSVKGRFTISRDNAKNTVYLQMYSLKPEDTAVYYCNKGYPYVAYDYWGQGTQVTVSS", "polyreactivity (PSR sort gate)": "high polyreactivity"}, {"sequence": "QVHLVESGGGLVQAGGSLRLSCAASGFTFRVYAMGWYRPAPGKERELVAAITKRGGSTYYADSVKGRFTISRDNAKNTVYLQMNSLKPEDTAGYYCATENTPHYASHGYWGQGTQVTVSS", "polyreactivity (PSR sort gate)": "high polyreactivity"}, {"sequence": "QVHLVESGGGLVQAGGSLRLSCAASGFTFSTYAMGVSRQAPGKEREWVAAISSGGTTNYADSEKGRFTISRDNAMNTVYLQMNCLKPEDTAVYYCATGYGRWTAYSTSYDYWGQGTQVTVSS", "polyreactivity (PSR sort gate)": "low polyreactivity"}, {"sequence": "QVHLVESGGGLVQAGGSLRLSCAASGFTFSYYAMGWYRQPPGKERELVAAITTSGGRTYYADSVKGRFPISRDNAKNTVYLQMNSLKPEDTAVYYCAATYPRYYSGEFDYWGQGTQVTVSS", "polyreactivity (PSR sort gate)": "high polyreactivity"}, {"sequence": "QVHLVESGGGLVQAGGSLRLSCAASGFTFTLYAMGWYRQAPGKERELVAAIYFSGGNTYYADSVKGRFTISRDNAKNTVYLQMNSLKPEDTAVYYCAAEYYPSASYYYGWYTIFWLITRDDYYWGQGTQVTVSS", "polyreactivity (PSR sort gate)": "high polyreactivity"}, {"sequence": "QVHLVESGGGLVQAGGSLRLSCAASGFTFVSYAMGWYRQAPGKERELVDDINQSGGSTYYADSLKGRFTISRDNAKNTVYLQMNSQKPEDTAVYYCARDGDLWYYKGYGTLFDYWGQGTQVTVSS", "polyreactivity (PSR sort gate)": "low polyreactivity"}, {"sequence": "QVHLVESGGGLVQAGGSLRLSCAASGFTFYRTAMGWYRQPPGKERELVAAITRGASTYYADSVKGRFTISRDNAKNNVYLQMNSLKPEDTAVYYCAADRYYYRGRYYGYTREFDYWGQGTQVTVSS", "polyreactivity (PSR sort gate)": "high polyreactivity"}, {"sequence": "QVHLVESGGGLVQAGGSLRLSCAASGFTFYSYAMGWYRQAPGKERELVANITIGGSTYADSVKGRFTISRDNAKNTVYLQMNSLKPEDTAVYYCARGYRVVGDPLYGDYDYWGQGTQVTVSS", "polyreactivity (PSR sort gate)": "low polyreactivity"}, {"sequence": "QVHLVESGGGLVQAGGSLRLSCAASGFTSQYYAMGWYRQAPGKERELVAAITLRDGSTYYADSVKGRFTISRDNAKNTVYLQMNSLKPEDTAVYYCNTDATSDPYGFGYWGQGTQVTVSS", "polyreactivity (PSR sort gate)": "low polyreactivity"}, {"sequence": "QVHLVESGGGLVQAGGSLRLSCAASGGLFTSYDMGWYRQEPGKEREFVAGISDSGGSTYYADSVKGRFTISRDNAKNTVYLQMNSLKPEVTAVYYCAVESYRRYYYWGQGTQVTVSS", "polyreactivity (PSR sort gate)": "high polyreactivity"}, {"sequence": "QVHLVESGGGLVQAGGSLRLSCAASGIFSRYAMRWYRQAPGKERELVDAISSGDSTNYADSVKGRFTISRDNAKNTVYLQMNSLKPEDTAVYYCATERSHLASGQGYYYVQTFYYWGQGTKVTVSS", "polyreactivity (PSR sort gate)": "low polyreactivity"}, {"sequence": "QVHLVESGGGLVQAGGSLRLSCAASGIIFPSYVMGWYRQAPGKEWELVARISARGGRTYYADSVKGRFTISRDNAKNTVYLQMNSLKPEDTAVYYCAARWGITTWYDYWGQGTQVTVSS", "polyreactivity (PSR sort gate)": "high polyreactivity"}, {"sequence": "QVHLVESGGGLVQAGGSLRLSCAASGIIFSDYALGWYRQAPGKERELVAAITSSGCSTYYADSVKGRFTISRDNAKNTVYLQMNSLKPEDTAVYYCNARYRRKSWRPFDYWGQGTQVTVSS", "polyreactivity (PSR sort gate)": "high polyreactivity"}, {"sequence": "QVHLVESGGGLVQAGGSLRLSCAASGIIFYANVMGWYRQAPGKERELVAGISRNGGRTYYADSVKGRFTFSRDNAKNTVYLQMICLKPEDTAVYYCAARGSYTSIFDYWGQGTQVTVSS", "polyreactivity (PSR sort gate)": "high polyreactivity"}, {"sequence": "QVHLVESGGGLVQAGGSLRLSCAASGITFHGYAMGWYRQAPGKERELVAAISDSGSSTYYADSVKGRFTISRDNAKNTVYLQMNSLKPEDTAVYYCAAVSGFYDQYDYWGQGTQVTVSS", "polyreactivity (PSR sort gate)": "low polyreactivity"}, {"sequence": "QVHLVESGGGLVQAGGSLRLSCAASGITFRSYAMGWYRQAPGKERELVAAISTSGGRTYYADSVKGRFTISRDNAKNTVYLQMNSLKPEDTAVYYCNKVGGVYGYYAYGLGYWGQGTQVTVSS", "polyreactivity (PSR sort gate)": "high polyreactivity"}, {"sequence": "QVHLVESGGGLVQAGGSLRLSCAASGITFYIYAMGWYRQAPGTERELVAAISWRTGRTYYADSVKGRFTISRDNAKNTVYLQMNSLKPEYTAVYYCAAGVWVAGAFDYWGQGTQVNVSS", "polyreactivity (PSR sort gate)": "high polyreactivity"}, {"sequence": "QVHLVESGGGLVQAGGSLRLSCAASGLIFARNAMGWYSQAPGKEREMVAAISRSGSTNYADSVKGRFTISRDNAKNTVYLQMNSLKPEDTAVYYCAADHARYLGFPRVDYWGQGTQVTVSS", "polyreactivity (PSR sort gate)": "low polyreactivity"}, {"sequence": "QVHLVESGGGLVQAGGSLRLSCAASGLTFAWYAMGWYSQAPGKERELVAVISNGGSTNDADSVKGRFTISRDNAKNTVYLQMNSLKPEDTAVYYCAAGWVWSGNDYYYWGQGTQVTVSS", "polyreactivity (PSR sort gate)": "low polyreactivity"}, {"sequence": "QVHLVESGGGLVQAGGSLRLSCAASGLTFGVFAMGWYRQAPGKERELVAAITWRGDTTYYADSVKGRFTISRDNAKNTVYLQMNSLKPEDTAVYYCNAVFFYHGTKPAFISHDYWGQGTQVTVSS", "polyreactivity (PSR sort gate)": "low polyreactivity"}, {"sequence": "QVHLVESGGGLVQAGGSLRLSCAASGLTFIPNAMGWYRQAPGKERELVAAISGTGGSTYYADSVKGRFTISRDNAKNTVYLQMNRLKPEDTAVYYCAARRRYKSGYWGQGTQVTVSS", "polyreactivity (PSR sort gate)": "high polyreactivity"}, {"sequence": "QVHLVESGGGLVQAGGSLRLSCAASGLTFQYYAMGWYRQAPGKQRELVAAISSRGGRTYYADSVKGRFTISRDNAKNTVYLQMNSLKPEDTAVYYCAAEWWAPDRVTRGRIYGYWGQGTQVTVSS", "polyreactivity (PSR sort gate)": "high polyreactivity"}, {"sequence": "QVHLVESGGGLVQAGGSLRLSCAASGNIFTINAMGWYRQAPGKERDLVARITWGGGNTFYADSVKGRFTISRDNAKNTVYLEMNSLKPEDTAVYYCNAVGPYDYRYGKYDYWGQGTQVTVSS", "polyreactivity (PSR sort gate)": "low polyreactivity"}, {"sequence": "QVHLVESGGGLVQAGGSLRLSCAASGNIIPGNAMGWYRQAPGKERELVAAISYSGVRTHYADSVKGRFTISRDNAKNTVYLQMNSLKPEDTAVYYCAASGEQDYDYWGQGTQVTVSS", "polyreactivity (PSR sort gate)": "low polyreactivity"}, {"sequence": "QVHLVESGGGLVQAGGSLRLSCAASGNTFYWYVMGWYRQAPGKERDLVARITSSGGSTNYADSVKGRFTISRDNAKNTVYLQMISLKPEDTAVYYCAADDIYLYGGGTDYYYWGQGTQVTVSS", "polyreactivity (PSR sort gate)": "low polyreactivity"}, {"sequence": "QVHLVESGGGLVQAGGSLRLSCAASGNTHVKNAMGWYRQAPGKERELVAAISSSGGRTYYGDSVKGRFTISRDNAKNTVYLQMNSLKPDDTAVYYCAARYPSGYYYWGQGTQVTVSS", "polyreactivity (PSR sort gate)": "high polyreactivity"}, {"sequence": "QVHLVESGGGLVQAGGSLRLSCAASGRIFDYYAMGWYRQAPGKERELVARITSGGTTNYADSVKGRFTISRDNENNTVYLQMNSLKPEYTEVYYCKAHDYSDPLQMDYWGQGTQVTVSS", "polyreactivity (PSR sort gate)": "low polyreactivity"}, {"sequence": "QVHLVESGGGLVQAGGSLRLSCAASGRIFGRNAMGWYRQAPGQERELVAAITSGSSTYYADSVKGRFTISRDNAKNTVYLQMNSLKPEDTAVYYCAARTIGYHYTGGYGYWGQGTQVTVSS", "polyreactivity (PSR sort gate)": "high polyreactivity"}, {"sequence": "QVHLVESGGGLVQAGGSLRLSCAASGRIFGTYVMGWYRQAPGKERELVARITGGGSTNYADSVKGRFTISRDNAKNTVYLQMNSLKPEDTAVYYCARDYGPYLSPENPAPMDYWGQGTQVTVSS", "polyreactivity (PSR sort gate)": "low polyreactivity"}, {"sequence": "QVHLVESGGGLVQAGGSLRLSCAASGRIFGYYAMGWYRQAPGKERELVAAISYSTGGTSTYADSVKGRFTISRDNAKNTVYLQMNSLKPEDTAVYYCAVRRQYRRAYSFSQSRYDYWGQGTQVTVSS", "polyreactivity (PSR sort gate)": "high polyreactivity"}, {"sequence": "QVHLVESGGGLVQAGGSLRLSCAASGRIFNSYAMGWYRPAPGKERELVAAINWTDVSTYYADSVKGRFTLSRYNAKNTVYVELNSLTPDDTAVYYGPDVRWGSYTLSDDYWGQGTQVTVSS", "polyreactivity (PSR sort gate)": "low polyreactivity"}]}]}
